Measurements as given in the supplement of paper PMC5998384.

Legend:
HeLa Kyoto [1] = assay: solubility change mitosis vs G1/S (difference of NP-40 vs SDS log2 ratios) (log2 ratio difference); higher = more soluble in mitosis
HeLa Kyoto [2] = assay: thermal stability score vs G1/S (z-score of summed log2 fold changes over temperatures); higher = more thermally stable than in G1/S
HeLa Kyoto [3] = assay: melting temperature (median over replicates), in situ; higher = more thermally stable
[4] = cell cycle stage: early G1 (4.5 h after nocodazole release)
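Throughout, for melting temperature (median over replicates), in situ: HeLa Kyoto cells synchronized by double thymidine or nocodazole block, proteins quantified by TMT10plex mass spectrometry, three independent biological replicates.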
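Throughout, for solubility change mitosis vs G1/S (difference of NP-40 vs SDS log2 ratios): synchronized HeLa Kyoto cells (double thymidine block for G1/S, nocodazole release for mitosis), protein amounts in NP-40 versus SDS lysates quantified by mass spectrometry, three biological replicates.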
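Throughout, for thermal stability score vs G1/S (z-score of summed log2 fold changes over temperatures): synchronized HeLa Kyoto cells, proteins quantified by TMT10plex mass spectrometry, three biological replicates, mitosis taken 0.5 h after nocodazole release, G1/S directly after double thymidine block.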

| Substance | solubility change mitosis (log2) (HeLa Kyoto [1]) | thermal stability score (HeLa Kyoto [2]; [4]) | thermal stability score (HeLa Kyoto [2]; cell cycle stage: mitosis) | melting temperature (HeLa Kyoto [3]; cell cycle stage: G1/S) [°C] | melting temperature (HeLa Kyoto [3]; cell cycle stage: mitosis) [°C] |
| --- | --- | --- | --- | --- | --- |
| ACACA | -0.227 | – | – | – | – |
| ACADSB | -0.0159 | – | – | – | – |
| ALYREF | 0.776 | – | – | – | – |
| ARPC3 | 0.222 | – | – | – | – |
| ARPC4 | -0.115 | – | – | – | – |
| CAMKMT | 0.137 | – | – | – | – |
| CAPZA1 | -0.0799 | – | – | – | – |
| CTBP1 | -0.0691 | – | – | – | – |
| DAP3 | -0.0659 | – | – | – | – |
| DDA1 | 0.3 | – | – | – | – |
| FMR1 | 0.261 | – | – | – | – |
| GNB2L1 | 0.272 | – | – | – | – |
| GOPC | -0.0477 | – | – | – | – |
| INPP4A | -0.0329 | – | – | – | – |
| KIAA0907 | 0.046 | – | – | – | – |
| KIAA1524 | -0.103 | – | – | – | – |
| KPNA2 | 0.136 | – | – | – | – |
| LEO1 | -0.0441 | – | – | – | – |

| Substance | solubility change mitosis (log2) (HeLa Kyoto [1]) | thermal stability score (HeLa Kyoto [2]; [4]) | thermal stability score (HeLa Kyoto [2]; cell cycle stage: mitosis) | melting temperature (HeLa Kyoto [3]; cell cycle stage: G1/S) [°C] | melting temperature (HeLa Kyoto [3]; cell cycle stage: mitosis) [°C] |
| --- | --- | --- | --- | --- | --- |
| MESALAVPRLPPHDPGTPVLSVVDMHTGGEPLRIVLAGCPEVSGPTLLAKRRYMRQHLDHVRRRLMFEPRGHRDMYGAVLVPSELPDAHLGVLFLHNEGYSSMCGHAVLALGRFALDFGLVPAPPAGTREARVNIHCPCGLVTAFVACEDGRSHGPVRFHSVPAFVLATDLMVDVPGHGKVMVDIAYGGAFYAFVTAEKLGLDICSAKTRDLVDAASAVTEAVKAQFKINHPDSEDLAFLYGTILTDGKDAYTKEPTTNICVFADEQVDRSPTGSGVTARIALQYHKGLLELNQMRAFKSSATGSVFTGKAVREAKCGDFKAVIVEVSGQAHYTGTASFIIEDDDPLRDGFLLK [L3HYPDH] | – | 0.886 | 0.62 | 55.6 | 54.4 |
| MESQKEARTLQEPVARPSGASSSQTPNDKERREGGAVPAAAALGAEADDDSADGLWELPVEPAERRPECTRCSRPQKVCLCPFLPAHPLHISTHLYIIQHPAEENKVLRTVPLLAACLPQDKCKVKIGRRFSEERDPELSTVCRKSGTLILYPGAEAANLEEFILDSPVYPSTIIIIDGTWSQAKDIFYKNSLFRHPKQVQLKTSISSQYVIRMQPTNRCLSTLECAAVALSILEKNNYIQETLLRPLQALCSFQLQHGAQIRLSKEHLLKNGLYPKPMPKNKRKLRKMELLMNSVKI [DTWD2] | – | 0.37 | 0.624 | – | 51.2 |
| METAP1 | 0.0188 | – | – | – | – |
| METDLNSQDRKDLDKFIKFFALKTVQVIVQARLGEKICTRSSSSPTGSDWFNLAIKDIPEVTHEAKKALAGQLPAVGRSMCVEISLKTSEGDSMELEIWCLEMNEKCDKEIKVSYTVYNRLSLLLKSLLAITRVTPAYRLSRKQGHEYVILYRIYFGEVQLSGLGEGFQTVRVGTVGTPVGTITLSCAYRINLAFMSTRQFERTPPIMGIIIDHFVDRPYPSSSPMHPCNYRTAGEDTGVIYPSVEDSQEVCTTSFSTSPPSQLSSSRLSYQPAALGVGSADLAYPVVFAAGLNATHPHQLMVPGKEGGVPLAPNQPVHGTQADQERLATCTPSDRTHCAATPSSSEDTETVSNSSEGRASPHDVLETIFVRKVGAFVNKPINQVTLTSLDIPFAMFAPKNLELEDTDPMVNPPDSPETESPLQGSLHSDGSSGGSSGNTHDDFVMIDFKPAFSKDDILPMDLGTFYREFQNPPQLSSLSIDIGAQSMAEDLDSLPEKLAVHEKNVREFDAFVETLQ [ATG13] | – | 0.178 | -1.05 | 51.7 | 52.2 |
| MEVVEAAAAQLETLKFNGTDFGVGEGPAAPSPGSAPVPGTQPPLQSFEGSPDAGQTVEVKPAGEQPLQPVLNAVAAGTPAPQPQPPAESPACGDCVTSPGAAEPARAPDSLETSDSDSDSDSETDSDSSSSSSSSSSSSSSSSSSCISLPPVLSDGDDDLQIEKENKNFPLKTKDELLLNELPSVEELTIILPEDIELKPLGMVSSIIEQLVIIESMTNLPPVNEETVIFKSDRQAAGKIFEIFGPVAHPFYVLRFNSSDHIESKGIKIKETMYFAPSMKDFTQYIFTEKLKQDKGSDASWKNDQEPPPEALDFSDDEKEKEAKQRKKSQIQGRKKLKSEFNEPGEDFTEVHQNWNAHSSASEHAKGYRNREFTRGFSRARYPRSCHGRPPPQHFYNSEHMVSQETSGFPSQRQNNPIMPQYPFPLPVFDMHNFPLRPPPPPPPPPVNMGWATPNMAAHPLLNLPYSLPPPPPPPPLPPPPSSGDSNSHFGPYY [NAF1] | – | 0.0445 | -1.83 | 52 | 52.1 |
| MGLPALEFSDCCLDSPHFRETLKSHEAELDKTNKFIKELIKDGKSLISALKNLSSAKRKFADSLNEFKFQCIGDAETDDEMCIARSLQEFATVLRNLEDERIRMIENASEVLITPLEKFRKEQIGAAKEAKKKYDKETEKYCGILEKHLNLSSKKKESQLQEADSQVDLVRQHFYEVSLEYVFKVQEVQERKMFEFVEPLLAFLQGLFTFYHHGYELAKDFGDFKTQLTISIQNTRNRFEGTRSEVESLMKKMKENPLEHKTISPYTMEGYLYVQEKRHFGTSWVKHYCTYQRDSKQITMVPFDQKSGGKGGEDESVILKSCTRRKTDSIEKRFCFDVEAVDRPGVITMQALSEEDRRLWMEAMDGREPVYNSNKDSQSEGTAQLDSIGFSIIRKCIHAVETRGINEQGLYRIVGVNSRVQKLLSVLMDPKTASETETDICAEWEIKTITSALKTYLRMLPGPLMMYQFQRSFIKAAKLENQESRVSEIHSLVHRLPEKNRQMLQLLMNHLANVANNHKQNLMTVANLGVVFGPTLLRPQEETVAAIMDIKFQNIVIEILIENHEKIFNTVPDMPLTNAQLHLSRKKSSDSKPPSCSERPLTLFHTVQSTEKQEQRNSIINSSLESVSSNPNSILNSSSSLQPNMNSSDPDLAVVKPTRPNSLPPNPSPTSPLSPSWPMFSAPSSPMPTSSTSSDSSPVRSVAGFVWFSVAAVVLSLARSSLHAVFSLLVNFVPCHPNLHLLFDRPEEAVHEDSSTPFRKAKALYACKAEHDSELSFTAGTVFDNVHPSQEPGWLEGTLNGKTGLIPENYVEFL [ARHGAP26] | – | -0.227 | -0.147 | – | 52 |
| MGRSRSRSPRRERRRSRSTSRERERRRRERSRSRERDRRRSRSRSPHRRRSRSPRRHRSTSPSPSRLKERRDEEKKETKETKSKERQITEEDLEGKTEEEIEMMKLMGFASFDSTKGKKVDGSVNAYAINVSQKRKYRQYMNRKGGFNRPLDFIA [SNRNP27] | – | 1.03 | 0.903 | 54 | 53.3 |
| MGSQEVLGHAARLASSGLLLQVLFRLITFVLNAFILRFLSKEIVGVVNVRLTLLYSTTLFLAREAFRRACLSGGTQRDWSQTLNLLWLTVPLGVFWSLFLGWIWLQLLEVPDPNVVPHYATGVVLFGLSAVVELLGEPFWVLAQAHMFVKLKVIAESLSVILKSVLTAFLVLWLPHWGLYIFSLAQLFYTTVLVLCYVIYFTKLLGSPESTKLQTLPVSRITDLLPNITRNGAFINWKEAKLTWSFFKQSFLKQILTEGERYVMTFLNVLNFGDQGVYDIVNNLGSLVARLIFQPIEESFYIFFAKVLERGKDATLQKQEDVAVAAAVLESLLKLALLAGLTITVFGFAYSQLALDIYGGTMLSSGSGPVLLRSYCLYVLLLAINGVTECFTFAAMSKEEVDRYNFVMLALSSSFLVLSYLLTRWCGSVGFILANCFNMGIRITQSLCFIHRYYRRSPHRPLAGLHLSPVLLGTFALSGGVTAVSEVFLCCEQGWPARLAHIAVGAFCLGATLGTAFLTETKLIHFLRTQLGVPRRTDKMT [RFT1] | – | -1.46 | -1.12 | 57.1 | 56.9 |
| MGVNAVHWFRKGLRLHDNPALKECIQGADTIRCVYILDPWFAGSSNVGINRWRFLLQCLEDLDANLRKLNSRLFVIRGQPADVFPRLFKEWNITKLSIEYDSEPFGKERDAAIKKLATEAGVEVIVRISHTLYDLDKIIELNGGQPPLTYKRFQTLISKMEPLEIPVETITSEVIEKCTTPLSDDHDEKYGVPSLEELGFDTDGLSSAVWPGGETEALTRLERHLERKAWVANFERPRMNANSLLASPTGLSPYLRFGCLSCRLFYFKLTDLYKKVKKNSSPPLSLYGQLLWREFFYTAATNNPRFDKMEGNPICVQIPWDKNPEALAKWAEGRTGFPWIDAIMTQLRQEGWIHHLARHAVACFLTRGDLWISWEEGMKVFEELLLDADWSINAGSWMWLSCSSFFQQFFHCYCPVGFGRRTDPNGDYIRRYLPVLRGFPAKYIYDPWNAPEGIQKVAKCLIGVNYPKPMVNHAEASRLNIERMKQIYQQLSRYRGLGLLASVPSNPNGNGGFMGYSAENIPGCSSSGSCSQGSGILHYAHGDSQQTHLLKQGRSSMGTGLSGGKRPSQEEDTQSIGPKVQRQSTN [CRY1] | – | 0.298 | -0.281 | – | 52 |
| MIB1 | 0.06 | – | – | – | – |
| MIKAILIFNNHGKPRLSKFYQPYSEDTQQQIIRETFHLVSKRDENVCNFLEGGLLIGGSDNKLIYRHYATLYFVFCVDSSESELGILDLIQVFVETLDKCFENVCELDLIFHVDKVHNILAEMVMGGMVLETNMNEIVTQIDAQNKLEKSEAGLAGAPARAVSAVKNMNLPEIPRNINIGDISIKVPNLPSFK [AP3S1] | – | -0.187 | -0.378 | 50.8 | 51.2 |
| MLKPALEPRGGFSFENCQRNASLERVLPGLKVPHARKTGTTIAGLVFQDGVILGADTRATNDSVVADKSCEKIHFIAPKIYCCGAGVAADAEMTTRMVASKMELHALSTGREPRVATVTRILRQTLFRYQGHVGASLIVGGVDLTGPQLYGVHPHGSYSRLPFTALGSGQDAALAVLEDRFQPNMTLEAAQGLLVEAVTAGILGDLGSGGNVDACVITKTGAKLLRTLSSPTEPVKRSGRYHFVPGTTAVLTQTVKPLTLELVEETVQAMEVE [PSMB10] | – | 0.227 | 0.56 | 53.3 | 52.6 |
| MREIVHLQAGQCGNQIGAKFWEVISDEHGIDPTGTYHGDSDLQLERINVYYNEATGGKYVPRAVLVDLEPGTMDSVRSGPFGQIFRPDNFVFGQSGAGNNWAKGHYTEGAELVDSVLDVVRKEAESCDCLQGFQLTHSLGGGTGSGMGTLLISKIREEYPDRIMNTFSVVPSPKVSDTVVEPYNATLSVHQLVENTDETYCIDNEALYDICFRTLKLTTPTYGDLNHLVSATMSGVTTCLRFPGQLNADLRKLAVNMVPFPRLHFFMPGFAPLTSRGSQQYRALTVPELTQQMFDAKNMMAACDPRHGRYLTVAAVFRGRMSMKEVDEQMLNVQNKNSSYFVEWIPNNVKTAVCDIPPRGLKMSATFIGNSTAIQELFKRISEQFTAMFRRKAFLHWYTGEGMDEMEFTEAESNMNDLVSEYQQYQDATAEEEGEFEEEAEEEVA [TUBB4B] | – | 0.304 | -1.31 | – | 54.4 |
| MRPL10 | -0.0658 | – | – | – | – |
| MRPL11 | 0.173 | – | – | – | – |
| MSGGRAPAVLLGGVASLLLSFVWMPALLPVASRLLLLPRVLLTMASGSPPTQPSPASDSGSGYVPGSVSAAFVTCPNEKVAKEIARAVVEKRLAACVNLIPQITSIYEWKGKIEEDSEVLMMIKTQSSLVPALTDFVRSVHPYEVAEVIALPVEQGNFPYLQWVRQVTESVSDSITVLP [CUTA] | – | -1.46 | -1.38 | 57.7 | 54.8 |
| MSGTRASNDRPPGAGGVKRGRLQQEAAATGSRVTVVLGAQWGDEGKGKVVDLLATDADIISRCQGGNNAGHTVVVDGKEYDFHLLPSGIINTKAVSFIGNGVVIHLPGLFEEAEKNEKKGLKDWEKRLIISDRAHLVFDFHQAVDGLQEVQRQAQEGKNIGTTKKGIGPTYSSKAARTGLRICDLLSDFDEFSSRFKNLAHQHQSMFPTLEIDIEGQLKRLKGFAERIRPMVRDGVYFMYEALHGPPKKILVEGANAALLDIDFGTYPFVTSSNCTVGGVCTGLGIPPQNIGDVYGVVKAYTTRVGIGAFPTEQINEIGGLLQTRGHEWGVTTGRKRRCGWLDLMILRYAHMVNGFTALALTKLDILDVLGEVKVGVSYKLNGKRIPYFPANQEMLQKVEVEYETLPGWKADTTGARRWEDLPPQAQNYIRFVENHVGVAVKWVGVGKSRESMIQLF [ADSSL1] | – | -1.69 | -2.13 | 55.3 | 55.4 |
| MYH14 | – | -0.174 | -1.24 | 53.1 | 52.2 |
